Laboratory results reported in patent publication US20250296992A1 (Genmab, published 2025).
Residue numbers refer to the chain shown, from its start.

B1: phA108-LD038 (8) (antibody, V domains shown)
VH: QVQLVQSGAEVKKPGASVKVSCTASGYIFNDYYLHWVRQAPGQGLEWVGIINPSGGSPVYAQKFQGRVTMTRDTSTNTVYMELSSLRSEDTAVYYCARGMVRGVRLFDYWGQGTLVTVSA
VL: EIVLTQSPATLSLSPGERATLSCRASQSVSSYLAWYQQKPGQTPRLLIYDASNRATGVPARFSGSGSGTDFTLTISSLETEDFAVYYCQQRTNWPLTFGGGTKVEIK
modifications: drug-linker LD038 on cysteines freed by TCEP reduction, DAR 8.0; positions not given
notes: also called phA108 ADC
B2: phA290-LD038 (8) (antibody, V domains shown)
VH: QVQLVQSGAEVKKPGASVKVSCKASGYTFTSYYMHWVRQAPGQGLEWMGIINPSGGSTSYAQKFQGRVTMTRDTSTSTVYMELSSLRSEDTAVYYCARGFTRYFDYWGQGTLVTVSA
VL: B1 VL with L4M, A9G, S31K, K39R, T43A, V58I, I75V, T80P, T92Y, K103T
modifications: drug-linker LD038 on cysteines freed by TCEP reduction, DAR 8.0; positions not given
notes: also called phA290 ADC
B3: hu1H2-03-LD038 (8) (antibody, V domains shown)
VH: EVQLVESGGGLVQPGGSLRLSCAASGFTFSDYGLHWVRQAPGKGLEWVSYISSGSSTVYFADTLKGRFTISRDNAKNSLYLQMNSLRAEDTAVYYCTRGTWYFDVWGRGTLVTVSS
VL: DIQMTQSPSSLSASVGDRVTITCRTSENIHSYLAWYQQKPGKSPQLLVYNAKTLADGVPSRFSGSGSGTDYTLTISSLQPEDFGTFYCQHFWTTSRTFGGGTKVEIK
modifications: drug-linker LD038 on cysteines freed by TCEP reduction, DAR 8.0; positions not given
notes: also called hu1H2-03 ADC
B4: hu1H2-03 (antibody, V domains shown)
VH: B3 VH
VL: B3 VL
notes: see m20
B5: hu1H2-13 (antibody, V domains shown)
VH: B3 VH with S49A
VL: B3 VL
B6: hu1H2-13-LD038 (8) (antibody, V domains shown)
VH: B3 VH with S49A
VL: B3 VL
modifications: drug-linker LD038 on cysteines freed by TCEP reduction, DAR 8.0; positions not given
notes: also called hu1H2-13 ADC
B7: hu14G1-03-LD038 (8) (antibody, V domains shown)
VH: EVQLVESGGGLVQPGGSLRLSCAASGFTFSDYGMHWVRQAPGKGLEWVSYISPGSSTIYYADTMKGRFTISRDNAKNSLYLQMNSLRAEDTAVYYCARAYGGSYWYFAVWGQGTLVTVSS
VL: B3 VL with T25A, E27G, F86Y, T93S, S95P, R96Y, V104L
modifications: drug-linker LD038 on cysteines freed by TCEP reduction, DAR 8.0; positions not given
notes: also called hu14G1-03 ADC
B8: Sirtratumab-LD038 (8) (antibody, V domains shown)
VH: QVQLVESGGGVVQPGRSLRLSCAASGFTFSSYGMHWVRQAPGKGLEWVAVIWYDGSNQYYADSVKGRFTISRDNSKNTLFLQMHSLRAEDTAVYYCARGLTSGRYGMDWGQGTTVTVSS
VL: DIVMTQSPLSLPVTPGEPASISCRSSQSLLLSHGFNYLDWYLQKPGQSPQLLIYLGSSRASGVPDRFSGSGSGTDFTLKISRVEAEDVGLYYCMQPLQIPWTFGQGTKVEIK
modifications: drug-linker LD038 on cysteines freed by TCEP reduction, DAR 8.0; positions not given
notes: also called Sirtratumab ADC
B9: hu1H2-03-LD343 (8) (antibody, V domains shown)
VH: B3 VH
VL: B3 VL
modifications: drug-linker LD343 on cysteines freed by TCEP reduction, DAR 8.0; positions not given
B10: hu14G1-03 (antibody, V domains shown)
VH: B7 VH
VL: B3 VL with T25A, E27G, F86Y, T93S, S95P, R96Y, V104L

Tests used:
human SLITRK6 on cells [1] = target: T1, human SLITRK6 on cells (human, UniProt Q9H5Y7 27-841); experiment: cell-based or functional assay
human SLITRK6 on cells [2] = target: T1, human SLITRK6 on cells; experiment: flow cytometry on 293F-SLITRK6-C9 cells
Protocol: (§1) The binding activity of mAbs and ADCs was evaluated by flow cytometer (Beckman, Cytoflex). Specifically, cells were incubated with 50 μL of mAbs or ADCs in series dilutions in PBS containing 1% BSA at 4° C. for 30 min. The cells were washed twice with PBS containing 1% BSA, stained with PE-conjugated anti human Fc in PBS containing 1% BSA and then incubated at 4° C. for 20 min. After that the cells were washed twice with PBS and analyzed by a flow cytometer.

human SLITRK6 on cells [3] = target: T1, human SLITRK6 on cells; experiment: flow cytometry on SW780 cells
Protocol: as §1

human SLITRK6 on cells [4] = target: T1, human SLITRK6 on cells; experiment: flow cytometry on RT4 cells
Protocol: as §1

human SLITRK6 on cells [5] = target: T1, human SLITRK6 on cells; experiment: flow cytometry on CHP-212 cells
Protocol: as §1

[6] = target: T2, human SLITRK6 extracellular domain linked to his tag (human, UniProt Q9H5Y7 27-608); experiment: BLI binning on huSLITRK6-his; Ab1 = row antibody first, then Ab2 (competitor) = phA290
T2 construct: extracellular domain; also called huSLITRK6; Hu SLITRK6; not shown: his tag

human SLITRK6 on cells [7] = target: T1, human SLITRK6 on cells; experiment: flow cytometry on SCC-4 cells
Protocol: (§2) The binding activity of mAbs was evaluated by flow cytometer (Beckman, Cytoflex). Specifically, cells were incubated with 50 μL of mAbs or ADCs in series dilutions in PBS containing 1% BSA at 4° C. for 30 minutes. The cells were washed twice with PBS containing 1% BSA, stained with PE-conjugated anti human Fc in PBS containing 1% BSA and then incubated at 4° C. for 20 min. After that the cells were washed twice with PBS and analyzed by a flow cytometer.

human SLITRK6 on cells [8] = target: T1, human SLITRK6 on cells; experiment: flow cytometry on RT112/84 cells
Protocol: as §2

human SLITRK6 on cells [9] = target: T1, human SLITRK6 on cells; experiment: flow cytometry on CHP-212 cells; remark: listed apart in the source
Protocol: as §2

human SLITRK6 on cells [10] = target: T1, human SLITRK6 on cells; experiment: flow cytometry on 293F-huSLITRK6-C9 cells
Protocol: The binding activity of mAbs was evaluated by flow cytometer (Beckman, Cytoflex). Specifically, cells were incubated with 50 μL of mAbs or ADCs in series dilutions in PBS containing 1% BSA at 4° C. for 30 min. The cells were washed twice with PBS containing 1% BSA, stained with PE-conjugated anti human Fc in PBS containing 1% BSA and then incubated at 4° C. for 20 min. After that the cells were washed twice with PBS and analyzed by a flow cytometer.

[11] = target: T2, human SLITRK6 extracellular domain …; experiment: BLI binning on huSLITRK6-his; Ab1 = row antibody first, then Ab2 (competitor) = hu14G1-03
Protocol: (§3) Epitope binning was characterized by the bio-layer interferometry (BLI). 100 nM of human SLITRK6′ extracellular domain linked to his tag was immobilized on anti-his biosensor tips (Fortebio). The sensors were rinsed with the buffer (50 mM Tris-AcOH, pH 6 or 7.5, 0.05% v/v surfactant P20) for 30 seconds to remove the unbound molecules, then dipped in the 100 nM of antibody 1 solutions for 180 seconds and interspersed by a rinsing step in the buffer solution for 300 seconds. After that, the sensors were dipped in the 100 nM of antibody 2 solutions. The epitope cluster was calculated using ForteBio Data Acquisition 6.3 software.

human SLITRK6 on cells [12] = target: T1, human SLITRK6 on cells; experiment: flow cytometry on SW780 cells; remark: listed apart in the source
Protocol: as §2

[13] = target: T3, cynomolgus monkey SLITRK6 extracellular domain linked to his tag (cynomolgus monkey, UniProt G7PVK4 27-608); experiment: BLI; antigen ECD-his on anti-his tips, antibody as analyte; 1:1 fit;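 further: antibody at several concentrations, 180 s association then 300 s dissociation in Tris buffer at pH 6 or 7.5, rate constants from global fitting, KD computed as koff/kon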
T3 construct: extracellular domain; also called cynoSLITRK6; Cyno SLITRK6; not shown: his tag

[14] = target: T2, human SLITRK6 extracellular domain …; experiment: as above
Protocol: Binding kinetic of antibody-antigen was characterized by the bio-layer interferometry (BLI). 100 nM of SLITRK6′ extracellular domain linked to his tag was immobilized on anti-his biosensor tips (Fortebio). The sensors were rinsed with the buffer (50 mM Tris-AcOH, pH 6 or 7.5, 0.05% v/v surfactant P20) for 10 min to remove the unbound molecules, then dipped in the antibody solutions at different concentrations for 180 seconds and interspersed by a rinsing step in the buffer solution for 300 seconds. Binding affinity was calculated using ForteBio Data Acquisition 6.3 software (ForteBio) and was derived by fitting the kinetic data to a 1:1 Langmuir binding model utilizing global fitting algorithms. The dissociation or association equilibrium constant KD was calculated from the binding rate constants as KD=koff/kₒₙ(where koff and kₒₙ represent the dissociation kinetic constant and the association kinetic constant, respectively).

[15] = target: T2, human SLITRK6 extracellular domain …; experiment: BLI binning on huSLITRK6-his; Ab1 = row antibody first, then Ab2 (competitor) = hu1H2-03
Protocol: as §3

[16] = target: T2, human SLITRK6 extracellular domain …; experiment: BLI binning on huSLITRK6-his; Ab1 = row antibody first, then Ab2 (competitor) = hu1H2-13
Protocol: as §3

human SLITRK6 on cells [17] = target: T1, human SLITRK6 on cells; experiment: flow cytometry on RT4 cells; remark: listed apart in the source
Protocol: as §2

[18] = target: T3, cynomolgus monkey SLITRK6 extracellular …; experiment: ELISA, coated antigen
Protocol: (§4) First, a purified antigen was adsorbed to the surface of a PVC 96-well plate for ELISA at 4° C. overnight, the plate was washed twice by filling the wells with 350 μL TBST buffer (200 mM Sodium Chloride, 20 mM Tris, 0.05% Tween-20, pH 8). The surface of the solid phase having no antigen adsorbed thereto was covered with BSA. After washing the surface with TBST buffer, the surface was incubated with a serially diluted mAb as a primary antibody to bind to the antigen for 1 hour at room temperature. The plate was washed twice with TBST buffer and added an antibody labeled with an enzyme as a secondary antibody to incubate for 1 hour at room temperature.

[19] = target: T2, human SLITRK6 extracellular domain …; experiment: ELISA, coated antigen
Protocol: as §4

[20] = target: T2, human SLITRK6 extracellular domain …; experiment: BLI binning on huSLITRK6-his; Ab1 = row antibody first, then Ab2 (competitor) = phA108
Protocol: as §3

[21] = target: T2, human SLITRK6 extracellular domain …; experiment: BLI binning on huSLITRK6-his; Ab1 = row antibody first, then Ab2 (competitor) = Sirtratumab
Protocol: as §3

human SLITRK6 on cells [22] = target: T1, human SLITRK6 on cells; experiment: flow cytometry on RT4 cells, PE-conjugated anti-human Fc
Protocol: as §1

human SLITRK6 on cells [23] = target: T1, human SLITRK6 on cells; experiment: flow cytometry on SW780 cells, PE-conjugated anti-human Fc
Protocol: as §1

Row | Binder | IC50 (nM), cytotoxicity on 293F-SLITRK6-C9 cells (Cell Titer-Glo) (human SLITRK6 on cells [1]) | IC50 (nM), cytotoxicity on CHP-212 cells (Cell Titer-Glo) (human SLITRK6 on cells [1]) | IC50 (nM), cytotoxicity on RT4 cells (Cell Titer-Glo) (human SLITRK6 on cells [1]) | EC50 (human SLITRK6 on cells [2]) | EC50 (human SLITRK6 on cells [3]) | EC50 (human SLITRK6 on cells [4]) | EC50 (human SLITRK6 on cells [5]) | epitope binning signal [6] | EC50 (human SLITRK6 on cells [7]) | EC50 (human SLITRK6 on cells [8]) | EC50 (human SLITRK6 on cells [9]) | EC50 (human SLITRK6 on cells [10]) | epitope binning signal [11] | EC50 (human SLITRK6 on cells [12]) | Kd [13] | koff [13] | kon [13] | Kd [14] | koff [14] | kon [14] | also measured
1 | B1 | 0.06 nM | 2.82 nM | 7.29 nM | 1090 pM | 290 pM | 160 pM | 140 pM | – | – | – | – | – | – | – | – | – | – | – | – | – | –
2 | B2 | – | 1.22 nM | 5.9 nM | 790 pM | 270 pM | 160 pM | 130 pM | – | – | – | – | – | – | – | – | – | – | – | – | – | –
3 | B3 | – | 0.83 nM | 7.02 nM | 1350 pM | 440 pM | 470 pM | 400 pM | – | – | – | – | – | – | – | – | – | – | – | – | – | –
4 | B4 | – | – | – | 1330 pM | 440 pM | 360 pM | 240 pM | 0.299 | 270 pM | 230 pM | 220 pM | 1330 pM | 0.0077 | 410 pM | 1270 pM | 0.000444 s⁻¹ | 348000 M⁻¹ s⁻¹ | 920 pM | 0.000441 s⁻¹ | 480000 M⁻¹ s⁻¹ | epitope binning signal [15]: 0.0113; epitope binning signal [16]: 0.0122; EC50 (human SLITRK6 on cells [17]): 280 pM; EC50 [18]: 50 pM; EC50 [19]: 40 pM; epitope binning signal [20]: 0.304; epitope binning signal [21]: 0.299
5 | B5 | – | – | – | 1320 pM | 440 pM | 270 pM | 220 pM | 0.302 | 230 pM | 170 pM | 220 pM | 1320 pM | 0.0231 | 450 pM | 1360 pM | 0.000513 s⁻¹ | 376000 M⁻¹ s⁻¹ | 916 pM | 0.00044 s⁻¹ | 480000 M⁻¹ s⁻¹ | epitope binning signal [15]: 0.0288; epitope binning signal [16]: 0.0284; EC50 (human SLITRK6 on cells [17]): 270 pM; EC50 [18]: 50 pM; EC50 [19]: 70 pM; epitope binning signal [20]: 0.299; epitope binning signal [21]: 0.312
6 | B6 | 0.06 nM | 0.93 nM | 5.06 nM | 1600 pM | 610 pM | 380 pM | 500 pM | – | – | – | – | – | – | – | – | – | – | – | – | – | –
7 | B7 | – | 0.91 nM | 9.56 nM | 1790 pM | 640 pM | 460 pM | 650 pM | – | – | – | – | – | – | – | – | – | – | – | – | – | –
8 | B8 | 0.06 nM | 5.56 nM | 9.25 nM | 1320 pM | 380 pM | 310 pM | 490 pM | – | – | – | – | – | – | – | – | – | – | – | – | – | –
9 | B9 | – | – | – | – | – | – | – | – | – | – | – | – | – | – | – | – | – | – | – | – | EC50 (read off the curve) (human SLITRK6 on cells [22]): ~400 pM; EC50 (read off the curve) (human SLITRK6 on cells [23]): ~300 pM
10 | B10 | – | – | – | 1770 pM | 620 pM | 380 pM | 370 pM | 0.326 | 440 pM | 350 pM | 330 pM | 1770 pM | 0.0192 | 610 pM | 965 pM | 0.000329 s⁻¹ | 341000 M⁻¹ s⁻¹ | 212 pM | 8.26e-05 s⁻¹ | 390000 M⁻¹ s⁻¹ | epitope binning signal [15]: 0.0244; epitope binning signal [16]: 0.0268; EC50 (human SLITRK6 on cells [17]): 320 pM; EC50 [18]: 40 pM; EC50 [19]: 40 pM; epitope binning signal [20]: 0.323; epitope binning signal [21]: 0.293
